Measurements: US20200339676A1 (University of California, published 2020)

How the values were obtained:
[1] = target: Endogenous NOTCH1 (MDA-MB-231 cell lysate) (UniProt P46531 19-2555, limits assumed); test: co-immunoprecipitation of endogenous proteins, MDA-MB-231 lysates, Western blot
Description: (§1) Notch receptor activation can be regulated through direct interactions with binding partners²⁴. […] To address this possibility, co-immunoprecipitation experiments were performed using MBA-MD-231 cells lysates, which express detectable levels of all four Notch receptors (NOTCH1-4). Endogenous ROBO1 co-immunoprecipitated with NOTCH4, but not […], NOTCH2 or NOTCH3 (FIG. 3H and data not shown). Next, the expression and subcellular localization of the NOTCH4 intracellular domain (N4-ICD) and HES1 was examined in control (Scr) and Robo1 (siR1) knockdown HC11 cells. Expression of Robo1 was inhibited in HC11 cells that were then primed for differentiation as described above. […] This effect was not observed in control Robo1 knockdown cells engineered to overexpress Robo1 (siR1+o/e) or cells treated with the γ-secretase inhibitor GSI (siR1+GSI) (FIGS. 3I-3K).
(§2) Adherent cells were lysed in 1 mL of 1× lysis buffer ([…] NaCl, 10 mM Tris-HCl pH8, […] EDTA, 1 mM sodium orthovanadate) supplemented with 1 percent Igepal NP40 (Sigma), 1 mM phenylmethanesulfonylfluoride (PMSF), 1 mM leupeptin, 1 mM aprotinin, and phosphatase inhibitors (Roche Complete). Cell lysate was incubated for 15 minutes at 4° C. with gentle rocking followed by centrifugation at 12,000 rpms for 10 minutes. […]

[2] = target: Endogenous NOTCH3 (MDA-MB-231 cell lysate) (UniProt Q9UM47 40-2321, limits assumed); test: co-immunoprecipitation of endogenous proteins, MDA-MB-231 lysates (data not shown)
Chain of Endogenous NOTCH3 (MDA-MB-231 cell lysate) (Q9UM47 40-2321 limits assumed): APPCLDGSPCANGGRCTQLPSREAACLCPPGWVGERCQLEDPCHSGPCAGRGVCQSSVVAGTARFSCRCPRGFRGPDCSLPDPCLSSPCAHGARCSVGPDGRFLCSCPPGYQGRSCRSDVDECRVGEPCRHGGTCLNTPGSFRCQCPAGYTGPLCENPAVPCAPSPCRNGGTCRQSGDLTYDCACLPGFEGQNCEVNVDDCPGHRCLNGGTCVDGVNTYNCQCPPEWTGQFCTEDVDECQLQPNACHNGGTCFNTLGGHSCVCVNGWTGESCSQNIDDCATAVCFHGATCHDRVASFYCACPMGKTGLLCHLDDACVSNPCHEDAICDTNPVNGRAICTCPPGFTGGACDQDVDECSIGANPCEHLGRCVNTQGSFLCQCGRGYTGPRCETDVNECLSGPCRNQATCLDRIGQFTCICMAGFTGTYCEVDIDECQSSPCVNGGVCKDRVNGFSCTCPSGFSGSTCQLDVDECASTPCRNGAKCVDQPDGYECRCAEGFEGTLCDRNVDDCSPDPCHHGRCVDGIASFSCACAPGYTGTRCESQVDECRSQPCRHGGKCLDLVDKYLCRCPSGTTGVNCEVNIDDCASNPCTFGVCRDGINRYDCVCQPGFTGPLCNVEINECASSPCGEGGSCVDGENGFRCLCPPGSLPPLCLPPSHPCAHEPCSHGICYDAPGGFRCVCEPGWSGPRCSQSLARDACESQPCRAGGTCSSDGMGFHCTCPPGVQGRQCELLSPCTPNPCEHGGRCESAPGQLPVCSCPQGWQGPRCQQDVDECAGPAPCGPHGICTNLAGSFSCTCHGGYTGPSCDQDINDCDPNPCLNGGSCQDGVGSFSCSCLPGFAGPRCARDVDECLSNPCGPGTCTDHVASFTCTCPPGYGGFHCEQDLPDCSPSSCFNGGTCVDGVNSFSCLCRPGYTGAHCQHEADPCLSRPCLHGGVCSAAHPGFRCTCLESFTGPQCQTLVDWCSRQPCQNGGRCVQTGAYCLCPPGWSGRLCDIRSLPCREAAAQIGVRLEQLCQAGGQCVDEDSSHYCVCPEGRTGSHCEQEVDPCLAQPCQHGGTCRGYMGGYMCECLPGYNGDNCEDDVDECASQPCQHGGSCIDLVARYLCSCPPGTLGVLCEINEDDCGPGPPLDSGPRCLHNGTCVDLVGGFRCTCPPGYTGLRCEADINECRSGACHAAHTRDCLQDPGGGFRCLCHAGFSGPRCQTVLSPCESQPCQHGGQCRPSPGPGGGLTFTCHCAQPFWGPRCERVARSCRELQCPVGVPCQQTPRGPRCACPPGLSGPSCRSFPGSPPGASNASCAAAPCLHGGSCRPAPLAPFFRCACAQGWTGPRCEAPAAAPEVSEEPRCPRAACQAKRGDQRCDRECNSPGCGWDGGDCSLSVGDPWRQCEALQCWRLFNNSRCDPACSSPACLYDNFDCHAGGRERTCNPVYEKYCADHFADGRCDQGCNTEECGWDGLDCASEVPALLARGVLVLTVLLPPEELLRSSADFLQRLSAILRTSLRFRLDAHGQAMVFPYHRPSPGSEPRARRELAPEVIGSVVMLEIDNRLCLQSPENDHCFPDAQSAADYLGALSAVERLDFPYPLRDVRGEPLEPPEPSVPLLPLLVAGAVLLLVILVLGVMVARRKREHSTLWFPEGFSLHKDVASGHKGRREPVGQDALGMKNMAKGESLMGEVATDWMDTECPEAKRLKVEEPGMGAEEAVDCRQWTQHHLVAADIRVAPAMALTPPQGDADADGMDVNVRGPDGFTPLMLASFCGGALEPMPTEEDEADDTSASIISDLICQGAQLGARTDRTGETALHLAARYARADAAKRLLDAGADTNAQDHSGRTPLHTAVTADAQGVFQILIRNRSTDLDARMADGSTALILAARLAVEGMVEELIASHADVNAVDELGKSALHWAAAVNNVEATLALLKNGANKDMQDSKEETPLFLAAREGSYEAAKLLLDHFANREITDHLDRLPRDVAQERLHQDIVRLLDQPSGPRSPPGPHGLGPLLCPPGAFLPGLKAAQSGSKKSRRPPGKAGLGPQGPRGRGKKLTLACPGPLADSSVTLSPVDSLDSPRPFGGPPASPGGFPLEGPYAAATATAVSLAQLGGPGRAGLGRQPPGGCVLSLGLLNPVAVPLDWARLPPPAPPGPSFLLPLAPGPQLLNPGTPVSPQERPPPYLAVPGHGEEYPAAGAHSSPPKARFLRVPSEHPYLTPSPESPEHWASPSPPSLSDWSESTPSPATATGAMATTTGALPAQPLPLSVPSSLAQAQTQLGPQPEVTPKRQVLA
Description: as §1, §2

[3] = target: Endogenous NOTCH2 (MDA-MB-231 cell lysate) (UniProt Q04721 26-2471, limits assumed); test: as above
Chain of Endogenous NOTCH2 (MDA-MB-231 cell lysate) (Q04721 26-2471 limits assumed): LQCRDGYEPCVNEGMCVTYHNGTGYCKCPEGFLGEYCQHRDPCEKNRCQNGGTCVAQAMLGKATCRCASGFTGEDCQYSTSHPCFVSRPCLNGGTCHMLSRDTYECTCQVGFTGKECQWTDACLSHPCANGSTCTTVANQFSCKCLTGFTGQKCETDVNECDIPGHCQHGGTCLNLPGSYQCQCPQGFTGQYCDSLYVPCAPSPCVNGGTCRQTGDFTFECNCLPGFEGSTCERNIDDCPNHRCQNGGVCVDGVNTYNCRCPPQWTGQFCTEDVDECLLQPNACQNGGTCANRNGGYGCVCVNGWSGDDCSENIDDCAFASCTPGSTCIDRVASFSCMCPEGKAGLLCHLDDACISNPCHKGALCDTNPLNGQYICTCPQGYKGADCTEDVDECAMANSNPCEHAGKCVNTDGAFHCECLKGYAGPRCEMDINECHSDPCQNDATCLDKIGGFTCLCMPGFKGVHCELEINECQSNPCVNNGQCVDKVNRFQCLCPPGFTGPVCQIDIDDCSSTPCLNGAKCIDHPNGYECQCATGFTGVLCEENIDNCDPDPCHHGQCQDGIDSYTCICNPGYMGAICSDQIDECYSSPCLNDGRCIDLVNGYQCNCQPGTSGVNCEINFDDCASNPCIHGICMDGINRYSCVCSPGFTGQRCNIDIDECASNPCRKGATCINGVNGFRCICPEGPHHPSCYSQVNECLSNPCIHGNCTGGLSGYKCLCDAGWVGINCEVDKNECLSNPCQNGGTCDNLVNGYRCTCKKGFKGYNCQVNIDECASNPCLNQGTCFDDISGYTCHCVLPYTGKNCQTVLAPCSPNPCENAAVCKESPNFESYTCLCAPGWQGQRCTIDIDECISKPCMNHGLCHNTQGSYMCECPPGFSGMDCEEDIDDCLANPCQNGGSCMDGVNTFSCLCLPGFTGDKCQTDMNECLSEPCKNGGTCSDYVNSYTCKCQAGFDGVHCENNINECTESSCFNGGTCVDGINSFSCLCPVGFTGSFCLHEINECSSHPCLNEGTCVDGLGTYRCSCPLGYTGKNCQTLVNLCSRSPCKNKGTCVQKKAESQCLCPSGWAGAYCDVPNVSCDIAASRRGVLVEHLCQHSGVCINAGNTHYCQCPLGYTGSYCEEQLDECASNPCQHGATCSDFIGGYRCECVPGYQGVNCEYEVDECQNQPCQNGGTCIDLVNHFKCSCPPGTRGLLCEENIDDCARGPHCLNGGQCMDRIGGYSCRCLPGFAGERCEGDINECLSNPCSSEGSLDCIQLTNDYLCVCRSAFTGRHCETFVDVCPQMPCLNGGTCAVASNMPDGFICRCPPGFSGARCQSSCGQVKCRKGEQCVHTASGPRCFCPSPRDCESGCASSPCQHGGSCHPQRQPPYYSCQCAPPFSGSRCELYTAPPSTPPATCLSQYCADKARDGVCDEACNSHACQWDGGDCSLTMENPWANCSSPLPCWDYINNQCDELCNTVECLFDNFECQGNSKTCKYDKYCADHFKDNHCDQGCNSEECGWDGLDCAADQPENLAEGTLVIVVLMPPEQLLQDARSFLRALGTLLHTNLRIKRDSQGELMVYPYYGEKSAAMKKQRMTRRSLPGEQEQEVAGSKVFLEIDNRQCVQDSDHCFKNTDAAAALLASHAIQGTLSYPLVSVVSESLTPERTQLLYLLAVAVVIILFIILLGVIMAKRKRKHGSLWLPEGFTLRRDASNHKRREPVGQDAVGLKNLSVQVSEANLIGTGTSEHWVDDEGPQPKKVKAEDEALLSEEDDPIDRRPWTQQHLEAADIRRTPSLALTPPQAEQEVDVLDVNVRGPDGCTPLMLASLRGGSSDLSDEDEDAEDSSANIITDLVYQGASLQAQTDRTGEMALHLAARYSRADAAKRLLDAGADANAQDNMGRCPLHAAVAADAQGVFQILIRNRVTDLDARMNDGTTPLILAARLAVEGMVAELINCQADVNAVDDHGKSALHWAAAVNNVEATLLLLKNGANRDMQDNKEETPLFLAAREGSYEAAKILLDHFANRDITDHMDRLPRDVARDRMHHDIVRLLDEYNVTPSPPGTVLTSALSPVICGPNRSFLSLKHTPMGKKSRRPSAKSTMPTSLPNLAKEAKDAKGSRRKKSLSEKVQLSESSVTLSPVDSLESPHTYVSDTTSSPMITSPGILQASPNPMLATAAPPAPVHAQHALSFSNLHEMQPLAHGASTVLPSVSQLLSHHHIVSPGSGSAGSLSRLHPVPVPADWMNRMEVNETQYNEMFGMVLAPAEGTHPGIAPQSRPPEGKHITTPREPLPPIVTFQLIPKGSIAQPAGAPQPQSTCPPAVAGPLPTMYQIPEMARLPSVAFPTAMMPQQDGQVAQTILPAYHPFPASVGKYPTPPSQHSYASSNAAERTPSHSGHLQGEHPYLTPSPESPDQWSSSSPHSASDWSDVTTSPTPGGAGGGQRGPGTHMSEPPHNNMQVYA
Description: as §1, §2

Measured: binding result

B1: Endogenous ROBO1 (MDA-MB-231 and HEK293 cell lysates) (receptor, UniProt Q9Y6N7 26-1651, looked up)
chain: QLIPDPEDVERGNDHGTPIPTSDNDDNSLGYTGSRLRQEDFPPRIVEHPSDLIVSKGEPATLNCKAEGRPTPTIEWYKGGERVETDKDDPRSHRMLLPSGSLFFLRIVHGRKSRPDEGVYVCVARNYLGEAVSHNASLEVAILRDDFRQNPSDVMVAVGEPAVMECQPPRGHPEPTISWKKDGSPLDDKDERITIRGGKLMITYTRKSDAGKYVCVGTNMVGERESEVAELTVLERPSFVKRPSNLAVTVDDSAEFKCEARGDPVPTVRWRKDDGELPKSRYEIRDDHTLKIRKVTAGDMGSYTCVAENMVGKAEASATLTVQEPPHFVVKPRDQVVALGRTVTFQCEATGNPQPAIFWRREGSQNLLFSYQPPQSSSRFSVSQTGDLTITNVQRSDVGYYICQTLNVAGSIITKAYLEVTDVIADRPPPVIRQGPVNQTVAVDGTFVLSCVATGSPVPTILWRKDGVLVSTQDSRIKQLENGVLQIRYAKLGDTGRYTCIASTPSGEATWSAYIEVQEFGVPVQPPRPTDPNLIPSAPSKPEVTDVSRNTVTLSWQPNLNSGATPTSYIIEAFSHASGSSWQTVAENVKTETSAIKGLKPNAIYLFLVRAANAYGISDPSQISDPVKTQDVLPTSQGVDHKQVQRELGNAVLHLHNPTVLSSSSIEVHWTVDQQSQYIQGYKILYRPSGANHGESDWLVFEVRTPAKNSVVIPDLRKGVNYEIKARPFFNEFQGADSEIKFAKTLEEAPSAPPQGVTVSKNDGNGTAILVSWQPPPEDTQNGMVQEYKVWCLGNETRYHINKTVDGSTFSVVIPFLVPGIRYSVEVAASTGAGSGVKSEPQFIQLDAHGNPVSPEDQVSLAQQISDVVKQPAFIAGIGAACWIILMVFSIWLYRHRKKRNGLTSTYAGIRKVPSFTFTPTVTYQRGGEAVSSGGRPGLLNISEPAAQPWLADTWPNTGNNHNDCSISCCTAGNGNSDSNLTTYSRPADCIANYNNQLDNKQTNLMLPESTVYGDVDLSNKINEMKTFNSPNLKDGRFVNPSGQPTPYATTQLIQSNLSNNMNNGSGDSGEKHWKPLGQQKQEVAPVQYNIVEQNKLNKDYRANDTVPPTIPYNQSYDQNTGGSYNSSDRGSSTSGSQGHKKGARTPKVPKQGGMNWADLLPPPPAHPPPHSNSEEYNISVDESYDQEMPCPVPPARMYLQQDELEEEEDERGPTPPVRGAASSPAAVSYSHQSTATLTPSPQEELQPMLQDCPEETGHMQHQPDRRRQPVSPPPPPRPISPPHTYGYISGPLVSDMDTDAPEEEEDEADMEVAKMQTRRLLLRGLEQTPASSVGDLESSVTGSMINGWGSASEEDNISSGRSSVSSSDGSFFTDADFAQAVAAAAEYAGLKVARRQMQDAAGRRHFHASQCPRPTSPVSTDSNMSAAVMQKTRPAKKLKHQPGHLRRETYTDDLPPPPVPPPAIKSPTAQSKTQLEVRPVVVPKLPSMDARTDRSSDRKGSSYKGREVLDGRQVVDMRTNPGDPREAQEQQNDGKGRGNKAAKRDLPPAKTHLIQEDILPYCRPTFPTSNNPRDPSSSSSMSSRGSGSRQREQANVGRRNIAEMQVLGGYERGEDNNEELEETES
notes: Endogenous full-length receptor in detergent cell lysate, immunoprecipitated with an anti-ROBO1 antibody; Human is inferred from the cell lines; also called R1
no binding: all assays above
